Experimental data from the nanobody polyreactivity screen of Harvey et al. (2022).

assay: yeast display, Sf9 membrane polyspecificity reagent, FACS + sequencing; frameworks hold sequencing errors
Outline: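 In a synthetic yeast display library (Saccharomyces cerevisiae BJ5465), nanobody expression was induced with galactose for 36–48 hours. FACS gates were set low and high (top ~1%) using anti-HA fluorescence for expression and streptavidin fluorescence for binding of the Sf9 membrane reagent. Each polyreactivity label is drawn from the gate of origin.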

Question: For “QVQLVESGGGLVQAGGSLRLSCAASGSIFVAYAMGWDRQAPGKERELVAAISSSGGTTYYAYSVKGRFTISRDNAKNTVYLQMNSLKPEDTAVYYCAARDYKYYYWGQGTQVTVSS”, which “polyreactivity (PSR sort gate)” value is on record?
Answer: Its value is “high polyreactivity”.

Question: For “QVQLVESGGGLVQAGGSLRLSCAASGSIFVAYAMGWYRQAPGKERELVAAITAVGSTYYADSVKGRFTISRDNAKNTVYLQMNSLKAEDTAVYYCAKRQLRPTYRYGYWGQGNQVTVSS”, which “polyreactivity (PSR sort gate)” value is on record?
Answer: Its value is “low polyreactivity”.

Question: For “QVQLVESGGGLVQAGGSLRLSCAASGSIFVDNAMGWYRQAPGKEREMVAAISRRGGSTYYADSVKGRFTISRDNAKNTVYLQMNSLKPEDTAVYYCNKKNIQFYQGASDYWGQGTQVTVSS”, which “polyreactivity (PSR sort gate)” value is on record?
Answer: The value was “high polyreactivity”.

Question: Which “polyreactivity (PSR sort gate)” value does the source give for “QVQLVESGGGLVQAGGSLRLSCAASGSIFVDNAMGWYRQAPGKETQLVAAIRSRDTSTYYADSVKGRFSISLDNAKNTVYLQMNSLKPEDTAVYYCAARTSKRVSQYNYWGQGTQVTVSS” here?
Answer: Its value is “high polyreactivity”.

Question: Which “polyreactivity (PSR sort gate)” value does the source give for “QVQLVESGGGLVQAGGSLRLSCAASGSIFVFYAMGWYRQAPGKERELVASITSSGGSTYYADSVKGRFTISRDNAKNTVYLQMNSLKPEDTAVYYCAARKYRNPYYYRYYYWGQGTQVTVSS” here?
Answer: Its value is “high polyreactivity”.

Question: For “QVQLVESGGGLVQAGGSLRLSCAASGSIFVGNAMGLYRQAPGKERELVAAISSSGGRTFYADSVKGRFTISRDIAKNSVYLQMNSLKPEDTAVYYCAAYLWSYVFNLYEYWGQGTQVTVSS”, which “polyreactivity (PSR sort gate)” value is on record?
Answer: Its value is “high polyreactivity”.

Question: With “QVQLVESGGGLVQAGGSLRLSCAASGSIFVGNAMGWYRQAPGKERELVAAISSSGGSTYYADSVKGRFTISRDYAKNSVYLQMNSLKPEYTAVYDCAADTYSTSGYYYWGQGTQVTVSS” as the sequence, how does the “polyreactivity (PSR sort gate)” value read?
Answer: The value was “low polyreactivity”.

Question: With “QVQLVESGGGLVQAGGSLRLSCAASGSIFVGYAMGLYRQAPGKERELVAAISASGGRTYYADSVKGRFTISRDNAKNTVYLQMNSLKPEDTAVYYCATDDYWGRGTQVTVSS” as the sequence, how does the “polyreactivity (PSR sort gate)” value read?
Answer: The value was “high polyreactivity”.

Question: For “QVQLVESGGGLVQAGGSLRLSCAASGSIFVGYAMGWYRQAPGKERELVAAISKSGGSTYYADSVKGRYTISRDNAKNTVYLQMNSLKPEDTAVYYCAAYPVRLVYSQHRYQYDYWGQGTQVTVSS”, which “polyreactivity (PSR sort gate)” value is on record?
Answer: The value was “high polyreactivity”.

Question: Which “polyreactivity (PSR sort gate)” value does the source give for “QVQLVESGGGLVQAGGSLRLSCAASGSIFVGYAMGWYRQAPGKERELVAAISVRGASTYYADSVKGRFTISRDNAKNTVYLQMNSLKPEDTAVYYCAARGNTPRTRRYGYWGQGTQVTVSS” here?
Answer: Its value is “high polyreactivity”.

Question: Which “polyreactivity (PSR sort gate)” value does the source give for “QVQLVESGGGLVQAGGSLRLSCAASGSIFVGYAMGWYRQAPGKERELVASINYSGGTTDYADSVKGRFTISRDNAKNTVYLQMNSLKPEDTAVYYCAKTAVDWSFTKGVDYDYWGQGTQVTVSS” here?
Answer: The value was “low polyreactivity”.

Question: Which “polyreactivity (PSR sort gate)” value does the source give for “QVQLVESGGGLVQAGGSLRLSCAASGSIFVHYAMGWYIQEPGKERELVARISWRGNTYYADSVKGRFTISRDNAKNTVYLQMNSLKPEDTAVYYCAKDVRRSLVNWDVVYPHGYWGQGTQVTVSS” here?
Answer: The value was “low polyreactivity”.

Question: With “QVQLVESGGGLVQAGGSLRLSCAASGSIFVHYAMGWYRQAPGKERELVAAITSSGGRTYYADSVKGRFTISRDNAKNTVYLQMNSLKPEDTAVYYCNAAKYLFRHGFLSAGDMYYWGQGTQVTVSS” as the sequence, how does the “polyreactivity (PSR sort gate)” value read?
Answer: Its value is “high polyreactivity”.

Question: For “QVQLVESGGGLVQAGGSLRLSCAASGSIFVHYAMGWYRQAPGKERELVARISWRGNTYYADSVKGRFTISRDNAKNTVYLQMNSLKPEDTAVYYCAAEYFWYYYYLMDYWGQGTQVTVSS”, which “polyreactivity (PSR sort gate)” value is on record?
Answer: The value was “low polyreactivity”.

Question: With “QVQLVESGGGLVQAGGSLRLSCAASGSIFVINPMGWYRPAPGKERELVATIRARAGSTYYADSVKGRFTISRDNAKNSVYLQMNSLKPEDTAVYYCAARLKSYRVDYWGQGTQVTVSS” as the sequence, how does the “polyreactivity (PSR sort gate)” value read?
Answer: Its value is “high polyreactivity”.

Question: Which “polyreactivity (PSR sort gate)” value does the source give for “QVQLVESGGGLVQAGGSLRLSCAASGSIFVIYAMGWYRQAPGKERELVAAISWNGGSTFYADSVKGRFTISRDNAKNTVYLQMNSLKPDDTAVYDCNTVASYYRWKSYYYWGQGTQVTVSS” here?
Answer: Its value is “high polyreactivity”.

Question: With “QVQLVESGGGLVQAGGSLRLSCAASGSIFVKNAMGWYRPAPGKEREFVAAITTSGGSTNYADSVKGRFTISRDNAKNTVYLQMTSLKPEDTAVYYCNTDIFPAAYDYWVQGTQVTVSS” as the sequence, how does the “polyreactivity (PSR sort gate)” value read?
Answer: The value was “low polyreactivity”.

Question: Which “polyreactivity (PSR sort gate)” value does the source give for “QVQLVESGGGLVQAGGSLRLSCAASGSIFVKNAMGWYRQAPGKERELVAVITIRTATTYYADSVKGRFTISRDNAKNTVYLQMNSLKPEVTAVYYCAAAKRQRGYLQREGNYWGQGTQVTVSS” here?
Answer: Its value is “low polyreactivity”.

Question: With “QVQLVESGGGLVQAGGSLRLSCAASGSIFVLNAMGWSRQAPGKETELVAAISYSGTGTYYADSVKGRFTISRDNAKNTVYLQMNSLKPEDTAVYDCAADYYYRYRIYDYWGQGTQVTLSS” as the sequence, how does the “polyreactivity (PSR sort gate)” value read?
Answer: The value was “low polyreactivity”.

Question: With “QVQLVESGGGLVQAGGSLRLSCAASGSIFVLYAMGWYRQAPGKERELVAAIDFGGGSTYYADSVKGRFTISRDNAKNTVYLQMNSLKPEYTAVYYCAAELYYTYRWYDYWGQGTQVTVSS” as the sequence, how does the “polyreactivity (PSR sort gate)” value read?
Answer: The value was “high polyreactivity”.

Question: Which “polyreactivity (PSR sort gate)” value does the source give for “QVQLVESGGGLVQAGGSLRLSCAASGSIFVLYAMGWYRQAPGKERELVAAITSGASTNYADSVKGRFTISRDNAKNTVYLQMNSLKPEDTAVYYCNTGSRLDRVDSWGQGTQVTVSS” here?
Answer: The value was “low polyreactivity”.

Question: For “QVQLVESGGGLVQAGGSLRLSCAASGSIFVNYAMGWYRQAPGKERELVAAISTGGGRTFYADSVKGRFTISRDNAKNTVYLQMNSLKPEDTAVYYCNKLGRPEYDYWGQGTQVTVSS”, which “polyreactivity (PSR sort gate)” value is on record?
Answer: The value was “high polyreactivity”.

Question: Which “polyreactivity (PSR sort gate)” value does the source give for “QVQLVESGGGLVQAGGSLRLSCAASGSIFVPNDMGWYRQAPGKEREFVAAITESDGSTYNADSVKGRFTISRDNAKNTVYLQMNSLKPEDTAVYYCATDSTGVTIVHFDYWGQGTQVTVSS” here?
Answer: Its value is “low polyreactivity”.

Question: For “QVQLVESGGGLVQAGGSLRLSCAASGSIFVPYAMGWTRQAPGKERELVAAIRRSGGRTYYADSVKGRFTISRDNAKNNVYLQMKSLKPEYTAVFYCAARQRYFWYTSNYNYWAQGTQVTVSS”, which “polyreactivity (PSR sort gate)” value is on record?
Answer: The value was “high polyreactivity”.

Question: For “QVQLVESGGGLVQAGGSLRLSCAASGSIFVPYAMGWYRQAPGKEREFVAAMYSGGGNTYYADSVKGRFTISRDNAKNTVYLQMNSLKREDTAVYYCAAAYVYSSWSRYDYWGQGTQVTVSS”, which “polyreactivity (PSR sort gate)” value is on record?
Answer: The value was “high polyreactivity”.

Question: With “QVQLVESGGGLVQAGGSLRLSCAASGSIFVPYAMGWYRQAPGKERELDAVITSGGSTYYADSVKGRFSISRDNAKNTVYLQMNSLKPEDTAVYYCNADLYYVWSTLSQFDYWGQGTQVTVSS” as the sequence, how does the “polyreactivity (PSR sort gate)” value read?
Answer: The value was “low polyreactivity”.

Question: With “QVQLVESGGGLVQAGGSLRLSCAASGSIFVPYAMGWYRQAPGKERELVAAISSGGGRTYYADSVKGRFTISRDNAKNTVYLQMNRLKPEDTAVYYCAARYYIGYGHRTYGYDYWGQGTQVTVSS” as the sequence, how does the “polyreactivity (PSR sort gate)” value read?
Answer: Its value is “high polyreactivity”.

Question: For “QVQLVESGGGLVQAGGSLRLSCAASGSIFVPYGMGWYRKAPGTDRELVAAITFRTTSTYYADSVKGRFTISRDNAKNTVYLQMNSLKPEDTAVYYCNKGDYRTYPYDYWGQGTQVTVSS”, which “polyreactivity (PSR sort gate)” value is on record?
Answer: Its value is “low polyreactivity”.

Question: For “QVQLVESGGGLVQAGGSLRLSCAASGSIFVQNRMGWYRQAPGKERELVAAITFSGVDTYYADSVKGRFTISRDNAKNTVYLQMNSLKPEDTAVYYCAARVQHYLSTDDYWGQGTQVTVSS”, which “polyreactivity (PSR sort gate)” value is on record?
Answer: The value was “low polyreactivity”.

Question: Which “polyreactivity (PSR sort gate)” value does the source give for “QVQLVESGGGLVQAGGSLRLSCAASGSIFVQYDMGWYRQAPGKERELVAAISWSGGSTYYADSVKGRFTISRDNAKNTVYLQMNTLKPEDTAVYYCAARARLWYFSYGYWGQGTQVTVSS” here?
Answer: The value was “low polyreactivity”.

Question: Which “polyreactivity (PSR sort gate)” value does the source give for “QVQLVESGGGLVQAGGSLRLSCAASGSIFVRNAKGCYRQAPWKERELVAAITATGGRTYYADSVKGRFTISRDNAKNTVYLQMNSLKPEDTAVYYCAAYYPRSGYDYWGQGTQVNVSS” here?
Answer: The value was “high polyreactivity”.

Question: For “QVQLVESGGGLVQAGGSLRLSCAASGSIFVRNAMGWYRQSPGKERELVAAITSGDSTNYADSVKGRFTISRDNAKNTVYLQMYCLKPEDTAVYYCNAQIYSVYRDGRDIYKYDYWGQGTQVTVSS”, which “polyreactivity (PSR sort gate)” value is on record?
Answer: The value was “low polyreactivity”.

Question: For “QVQLVESGGGLVQAGGSLRLSCAASGSIFVRNGMGWYRQAPGKDRELVASITSGTITYYADSVKGRFTISRDNAKNTVYLQMNSLKPEDTAVYDCNAGWRSSRFKRPYFRERNYWGQGTQLTVSS”, which “polyreactivity (PSR sort gate)” value is on record?
Answer: Its value is “high polyreactivity”.

Question: With “QVQLVESGGGLVQAGGSLRLSCAASGSIFVSYAMGWYRQAPGKERELVAAITSAGTTYYADSVKGRFTISRDNAKNTVYLQMNSLKPEDTAVYYCNADTYGYYLWTGAVSAGDDYWGQGTQVTVSS” as the sequence, how does the “polyreactivity (PSR sort gate)” value read?
Answer: Its value is “low polyreactivity”.

Question: Which “polyreactivity (PSR sort gate)” value does the source give for “QVQLVESGGGLVQAGGSLRLSCAASGSIFVSYAMGWYRQAPGKERELVAAITYSGGRTYYADSVKGRFTISRDNAKNTVYLQMNCLKPEDTAVYYCAKRVSYPVRFPYFSYDYWGQGTQVTVSS” here?
Answer: Its value is “low polyreactivity”.

Question: For “QVQLVESGGGLVQAGGSLRLSCAASGSIFVTNAMGWYRQAPGKERELVAAISVSGGSTYYADSEKGRITISRDNAKNTVYLQMNRLKAEDTAGYYCNARQVFTTAGREMDYWGQGTQVTVSS”, which “polyreactivity (PSR sort gate)” value is on record?
Answer: Its value is “low polyreactivity”.

Question: For “QVQLVESGGGLVQAGGSLRLSCAASGSIFVTNAMGWYRQAPGKERELVAAISWSGDNTYYADSVKGRFTISRDNAKNTFYLQMNSLIPEDTAVYYCSTDVWYSYDYYYGDWGYEYWGQGTQVTVSS”, which “polyreactivity (PSR sort gate)” value is on record?
Answer: Its value is “high polyreactivity”.

Question: For “QVQLVESGGGLVQAGGSLRLSCAASGSIFVTNVMGWYRQAPGKERELVAVINSGGRTYYADSVKGRFTISRDNAKNTVYLQMNSLKPEDTAVYYCAKDSWSSFQSLYPEFDYWGQGTQVTVSS”, which “polyreactivity (PSR sort gate)” value is on record?
Answer: The value was “low polyreactivity”.

Question: With “QVQLVESGGGLVQAGGSLRLSCAASGSIFVWNAMGWYRQAPGKERELVAAITNICGRTYYADSVKGRFTISRDNAKNTVYLQMNSLKPEDTAVYYCNTDRVSRLGWSTTSDSWGQGTQVTVSS” as the sequence, how does the “polyreactivity (PSR sort gate)” value read?
Answer: Its value is “high polyreactivity”.

Question: Which “polyreactivity (PSR sort gate)” value does the source give for “QVQLVESGGGLVQAGGSLRLSCAASGSIFVWYAMGWYRQAPGRKELVAAISWSGGTTYYADSVKGRFTISRDNAKNTVYLQMNSLKPEDTAVYYCAARGAVQASFYYWGQGTQVTVSS” here?
Answer: Its value is “high polyreactivity”.
